Measured values taken from US6984774.

System: Ac transposase (Zea mays)
Experiment: cell_activity
Settings: in Arabidopsis; GUS recombination stimulated over no-Ac control; Ds excision footprint confirmed by PCR and sequencing; binding not measured directly

Ds element in GU-Ds-US construct
activity: > 1000 fold
